Source: paper PMC12636044, “Membrane binding of a cyanobacterial ESCRT‐III protein crucially involves the helix α1‐3 hairpin conserved in all superfamily members” (Protein Science : A Publication of the Protein Society, 2025)

Columns and labels:
[1] = target: the molecule itself; experiment: SEC; Superose 12 10/300, 20 mM HEPES, 100 mM NaCl, pH 7.6, 7°C, 0.5 mL/min; self-association of the purified variant
[2] = target: the molecule itself; experiment: cross-linking; BS3 (285 μM), 5.7 μM protein incubated 2 h with DOPG liposomes of increasing concentrations, 25°C, SDS-PAGE; self-association

B1: IM30 wt (inner membrane-associated protein of 30 kDa) (natural protein, Synechocystis, UniProt Q55707 1-267, looked up)
chain: MGLFDRLGRVVRANLNDLVSKAEDPEKVLEQAVIDMQEDLVQLRQAVARTIAEEKRTEQRLNQDTQEAKKWEDRAKLALTNGEENLAREALARKKSLTDTAAAYQTQLAQQRTMSENLRRNLAALEAKISEAKTKKNMLQARAKAAKANAELQQTLGGLGTSSATSAFERMENKVLDMEATSQAAGELAGFGIENQFAQLEASSGVEDELAALKASMAGGALPGTSAATPQLEAAPVDSSVPANNASQDDAVIDQELDDLRRRLNNL
notes: IM30 (Vipp1) of Synechocystis, full-length wild type; calculated MW 31.7 kDa with tag; Forms homo-oligomeric barrels and rods of several MDa; the number of subunits was not measured here; also called wt IM30; Vipp1
binding result [1]: binds

B2: IM30 α1-3 (domain or fragment, Synechocystis, UniProt Q55707 26-156, looked up)
chain: EKVLEQAVIDMQEDLVQLRQAVARTIAEEKRTEQRLNQDTQEAKKWEDRAKLALTNGEENLAREALARKKSLTDTAAAYQTQLAQQRTMSENLRRNLAALEAKISEAKTKKNMLQARAKAAKANAELQQTL
notes: IM30 (Vipp1) of Synechocystis, helical hairpin α1-3, residues 26-156 (printed for the α1-3 fragment in the simulation); calculated mass about 17.5 kDa; also called IM30 αH1-3; α1-3 helical hairpin; not shown: His10, N-terminal, kept
binding result [2]: binds
